# T1: Human CD73 on cells (MDA-MB-231, Jurkat CD73 knock-in, NCI-H322) (human, UniProt P21589 27-549)
# T1 sequence: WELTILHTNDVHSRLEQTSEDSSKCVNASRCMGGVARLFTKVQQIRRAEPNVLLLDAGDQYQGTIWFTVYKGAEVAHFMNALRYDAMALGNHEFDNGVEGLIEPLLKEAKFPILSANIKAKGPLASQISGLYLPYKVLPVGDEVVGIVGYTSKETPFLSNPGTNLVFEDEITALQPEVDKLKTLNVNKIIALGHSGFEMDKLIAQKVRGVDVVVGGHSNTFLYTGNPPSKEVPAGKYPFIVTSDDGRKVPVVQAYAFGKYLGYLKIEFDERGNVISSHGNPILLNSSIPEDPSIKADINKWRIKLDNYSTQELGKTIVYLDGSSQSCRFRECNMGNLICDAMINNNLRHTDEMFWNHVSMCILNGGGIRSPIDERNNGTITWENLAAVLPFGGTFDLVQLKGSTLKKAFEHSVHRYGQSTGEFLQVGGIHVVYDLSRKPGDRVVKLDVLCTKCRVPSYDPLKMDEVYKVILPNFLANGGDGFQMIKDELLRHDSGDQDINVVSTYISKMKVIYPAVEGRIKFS
# T2: Murine CD73 on cells (4T1, Jurkat mCD73 knock-in) (murine, UniProt Q61503 29-551)
# T2 sequence (looked up): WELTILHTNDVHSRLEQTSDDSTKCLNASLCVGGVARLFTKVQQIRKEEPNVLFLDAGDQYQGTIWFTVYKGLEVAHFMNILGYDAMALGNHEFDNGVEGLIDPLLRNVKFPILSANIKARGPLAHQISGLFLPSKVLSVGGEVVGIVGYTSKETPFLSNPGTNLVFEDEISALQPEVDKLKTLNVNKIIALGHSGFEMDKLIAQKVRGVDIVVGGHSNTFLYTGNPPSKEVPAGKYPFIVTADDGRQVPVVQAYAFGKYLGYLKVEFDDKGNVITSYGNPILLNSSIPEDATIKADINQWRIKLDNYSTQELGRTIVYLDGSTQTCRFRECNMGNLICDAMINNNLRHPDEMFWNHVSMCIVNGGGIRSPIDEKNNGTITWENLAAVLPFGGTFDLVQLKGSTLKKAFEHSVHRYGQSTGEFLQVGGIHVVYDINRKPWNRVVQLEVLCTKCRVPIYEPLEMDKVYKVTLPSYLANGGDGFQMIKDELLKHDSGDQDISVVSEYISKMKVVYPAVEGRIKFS
# T3: Cynomolgus CD73 on MK-1 cells (cynomolgus, UniProt A0A2K5V5U7 27-549)
# T3 construct: whole, on cells; also called MK-1 (cyno)
# T3 sequence: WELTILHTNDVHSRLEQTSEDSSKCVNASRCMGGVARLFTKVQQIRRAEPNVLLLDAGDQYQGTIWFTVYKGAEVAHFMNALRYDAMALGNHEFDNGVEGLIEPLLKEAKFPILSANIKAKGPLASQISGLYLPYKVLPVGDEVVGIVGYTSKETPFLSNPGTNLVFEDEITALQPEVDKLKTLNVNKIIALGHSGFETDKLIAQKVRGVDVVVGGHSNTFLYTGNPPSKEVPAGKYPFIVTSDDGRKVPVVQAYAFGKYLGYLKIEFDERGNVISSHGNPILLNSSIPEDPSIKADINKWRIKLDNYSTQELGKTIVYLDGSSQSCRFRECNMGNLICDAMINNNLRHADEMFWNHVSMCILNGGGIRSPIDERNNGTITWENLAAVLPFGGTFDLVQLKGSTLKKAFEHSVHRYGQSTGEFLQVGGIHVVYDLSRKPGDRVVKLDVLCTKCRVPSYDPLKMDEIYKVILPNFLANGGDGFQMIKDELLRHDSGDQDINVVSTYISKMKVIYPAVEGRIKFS
# T4: Recombinant soluble wild-type human CD73 with C-terminal 6x-histidine tag (human, UniProt P21589 27-549)
# T4 construct: dimer in solution; also called sCD73; WT huCD73
# T4 sequence: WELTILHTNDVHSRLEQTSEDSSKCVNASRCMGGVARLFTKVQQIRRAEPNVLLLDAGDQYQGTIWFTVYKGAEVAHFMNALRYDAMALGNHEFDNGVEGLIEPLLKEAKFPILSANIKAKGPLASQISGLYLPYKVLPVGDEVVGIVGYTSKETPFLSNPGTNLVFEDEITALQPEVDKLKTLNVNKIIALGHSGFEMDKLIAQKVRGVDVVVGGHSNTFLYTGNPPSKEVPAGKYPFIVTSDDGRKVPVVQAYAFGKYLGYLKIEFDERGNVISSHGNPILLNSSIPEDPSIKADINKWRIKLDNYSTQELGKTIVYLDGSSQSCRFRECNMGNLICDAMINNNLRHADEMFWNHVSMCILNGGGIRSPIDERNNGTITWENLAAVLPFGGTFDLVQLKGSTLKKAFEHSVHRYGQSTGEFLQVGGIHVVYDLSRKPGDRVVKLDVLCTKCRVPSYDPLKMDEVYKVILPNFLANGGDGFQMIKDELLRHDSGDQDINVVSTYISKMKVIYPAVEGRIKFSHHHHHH
# Assays:
# [1] = biological target: T1, Human CD73 on cells (MDA-MB-231, Jurkat …); test: cell-based or functional assay
# [2] = biological target: T2, Murine CD73 on cells (4T1, Jurkat mCD73 …); test: cell-based or functional assay
# [3] = biological target: T3, Cynomolgus CD73 on MK-1 cells; test: flow cytometry on cells
# [4] = biological target: T2, Murine CD73 on cells (4T1, Jurkat mCD73 …); test: flow cytometry, 4T1 / 4T1(mCD73 -shRNA)
# [5] = biological target: T4, Recombinant soluble wild-type human …; test: SPR (ProteOn), CD73 immobilized on HTG chip
binder,measurement,setting,value
"MEDI9447 (antibody, human IgG1, lambda, V domains shown, Human IgG1-TM (L234F, L235E, P331S), lambda light chain; also called clone 10.3 antibody; 73combo3) VH: EVQLLESGGGLVQPGGSLRLSCAASGFTFSSYAYSWVRQAPGKGLEWVSAISGSGGRTYYADSVKGRFTISRDNSKNTLYLQMNSLRAEDTAVYYCARLGYGRVDEWGRGTLVTVSS VL: QSVLTQPPSASGTPGQRVTISCSGSLSNIGRNPVNWYQQLPGTAPKLLIYLDNLRLSGVPDRFSGSKSGTSASLAISGLQSEDEADYYCATWDDSHPGWTFGGGTKLTVLG","FabZAP internalization, EC50, MDA-MB-231",[1],3.5 pM
same,"FabZAP internalization, maximum toxicity, MDA-MB-231",[1],97%
same,"FabZAP internalization, EC50, 4T1",[2],18.5 pM
same,"FabZAP internalization, maximum toxicity, 4T1",[2],97%
same,Kd,[3],84 pM
same,Mean Fluorescence Intensity Ratio (MFIR),[4],3.9
same,koff,[5],1.94e-05 s⁻¹
same,kon,[5],4.63e+06 M⁻¹ s⁻¹

# Reference: US20230340152A1 (published 2023)
